Laboratory results published in CN115677858A (HEFEI HANKEMAB BIOTECHNOLOGY CO LTD; ANHUI ANKE …, dated 2023).

T1: 猴CD137胞外段 (SEQ ID No.20) (monkey, UniProt Q07011 24-186 (human entry))
T1 construct: Expressed in HEK293; no tag is stated; also called 猴CD137抗原
T1 chain: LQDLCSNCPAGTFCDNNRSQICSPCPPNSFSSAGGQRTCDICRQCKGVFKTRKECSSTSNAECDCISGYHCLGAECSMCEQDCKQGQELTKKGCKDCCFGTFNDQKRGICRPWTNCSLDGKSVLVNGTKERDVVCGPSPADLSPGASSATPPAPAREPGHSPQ

B1: 抗人PD-L1/CD137双特异性抗体 结构B (1st scFv-L1-Fc-L2-2nd Fab) (bispecific antibody, human IgG4 S228P, kappa, F234A L235A)
heavy: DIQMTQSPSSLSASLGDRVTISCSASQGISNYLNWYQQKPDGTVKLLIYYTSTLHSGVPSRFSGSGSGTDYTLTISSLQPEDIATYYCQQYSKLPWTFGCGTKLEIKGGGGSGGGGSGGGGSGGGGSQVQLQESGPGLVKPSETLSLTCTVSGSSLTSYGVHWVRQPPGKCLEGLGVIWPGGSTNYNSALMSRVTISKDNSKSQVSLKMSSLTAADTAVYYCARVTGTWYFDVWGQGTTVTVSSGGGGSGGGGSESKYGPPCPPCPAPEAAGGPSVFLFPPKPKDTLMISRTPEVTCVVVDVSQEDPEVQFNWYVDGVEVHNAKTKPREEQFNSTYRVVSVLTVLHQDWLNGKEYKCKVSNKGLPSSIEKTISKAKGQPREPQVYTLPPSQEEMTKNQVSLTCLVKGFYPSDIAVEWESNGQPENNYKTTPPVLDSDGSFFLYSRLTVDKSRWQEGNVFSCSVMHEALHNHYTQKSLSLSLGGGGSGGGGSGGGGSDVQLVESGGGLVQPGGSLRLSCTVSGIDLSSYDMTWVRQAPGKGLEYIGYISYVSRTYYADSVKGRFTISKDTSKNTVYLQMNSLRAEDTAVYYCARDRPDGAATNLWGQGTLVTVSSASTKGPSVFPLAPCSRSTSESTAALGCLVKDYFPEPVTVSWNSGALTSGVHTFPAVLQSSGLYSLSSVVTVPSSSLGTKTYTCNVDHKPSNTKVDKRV
light: DIQMTQSPSTLSASVGDRVTITCQSSQNVYSNNRLSWYQQKPGKAPKLLIYWTSFLASGVPSRFSGSGSGTEFTLTISSLQPDDFATYYCAGGYSGNLYTFGQGTKLEIKRTVAAPSVFIFPPSDEQLKSGTASVVCLLNNFYPREAKVQWKVDNALQSGNSQESVTEQDSKDSTYSLSSTLTLSKADYEKHKVYACEVTHQGLSSPVTKSFNRGEC
notes: Anti-CD137 scFv at the N-terminus of human IgG4 Fc, anti-PD-L1 Fab at its C-terminus; also called B结构
B2: 抗人PD-L1/CD137双特异性抗体 结构D3 (D1的突变分子) (bispecific antibody, human IgG4 S228P, kappa, F234A L235A)
heavy: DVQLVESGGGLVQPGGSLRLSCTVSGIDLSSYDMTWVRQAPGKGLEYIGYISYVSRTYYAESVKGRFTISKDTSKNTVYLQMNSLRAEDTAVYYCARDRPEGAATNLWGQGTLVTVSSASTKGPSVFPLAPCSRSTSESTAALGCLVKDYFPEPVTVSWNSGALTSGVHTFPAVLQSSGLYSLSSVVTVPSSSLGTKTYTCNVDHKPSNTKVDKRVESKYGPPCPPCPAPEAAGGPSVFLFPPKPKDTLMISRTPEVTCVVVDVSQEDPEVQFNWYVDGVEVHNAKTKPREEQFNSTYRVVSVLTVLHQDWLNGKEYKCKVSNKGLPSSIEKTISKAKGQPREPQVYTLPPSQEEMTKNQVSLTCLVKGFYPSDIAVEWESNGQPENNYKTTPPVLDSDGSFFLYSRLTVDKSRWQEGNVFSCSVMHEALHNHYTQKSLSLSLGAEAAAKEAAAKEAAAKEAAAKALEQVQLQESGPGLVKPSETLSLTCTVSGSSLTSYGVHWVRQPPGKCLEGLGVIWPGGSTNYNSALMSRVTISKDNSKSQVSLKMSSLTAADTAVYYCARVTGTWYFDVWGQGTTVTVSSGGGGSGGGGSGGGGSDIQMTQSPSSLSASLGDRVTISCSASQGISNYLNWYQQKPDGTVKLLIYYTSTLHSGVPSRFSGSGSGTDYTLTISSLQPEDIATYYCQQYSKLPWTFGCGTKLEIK
light: B1 light
notes: Mutant of D1; also called D3结构
B3: 抗人PD-L1/CD137双特异性抗体 结构D6 (D2的突变分子) (bispecific antibody, human IgG4 S228P, kappa, F234A L235A)
heavy: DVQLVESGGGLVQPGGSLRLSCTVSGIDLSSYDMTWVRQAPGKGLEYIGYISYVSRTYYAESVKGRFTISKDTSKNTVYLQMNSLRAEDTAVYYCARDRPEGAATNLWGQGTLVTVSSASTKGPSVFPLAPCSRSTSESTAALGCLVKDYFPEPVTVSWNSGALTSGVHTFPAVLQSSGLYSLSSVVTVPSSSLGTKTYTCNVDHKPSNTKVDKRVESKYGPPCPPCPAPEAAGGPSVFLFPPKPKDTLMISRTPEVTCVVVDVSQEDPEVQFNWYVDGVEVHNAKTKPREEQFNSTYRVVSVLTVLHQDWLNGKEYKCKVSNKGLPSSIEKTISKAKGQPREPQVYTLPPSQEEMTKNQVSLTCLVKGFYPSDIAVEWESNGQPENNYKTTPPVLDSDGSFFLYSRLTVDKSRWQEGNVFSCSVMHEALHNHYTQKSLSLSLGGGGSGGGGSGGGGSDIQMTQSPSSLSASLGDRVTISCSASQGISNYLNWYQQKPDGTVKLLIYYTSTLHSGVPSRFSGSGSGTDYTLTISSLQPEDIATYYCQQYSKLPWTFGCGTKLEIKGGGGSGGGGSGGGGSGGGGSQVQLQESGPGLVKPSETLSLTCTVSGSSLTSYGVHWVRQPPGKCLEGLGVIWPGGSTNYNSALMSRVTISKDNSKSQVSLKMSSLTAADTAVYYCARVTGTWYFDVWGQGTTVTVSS
light: B1 light
notes: Mutant of D2; also called D6结构

Legend:
[1] = target: T2, 人CD137全长 (SEQ ID No.19)，表达于细胞 (human, UniProt Q07011 24-255); experiment: flow cytometry (FACS) on CHO-K1/hCD137 cells, goat anti-human FITC; antibody at 9.259259259 nM
T2 construct: The full-length entry was transfected into CHO-K1 cells for FACS and into HEK293 cells for the reporter assay; also called CHO-K1/hCD137; 细胞表面人CD137
T2 sequence (Q07011 24-255 limits assumed): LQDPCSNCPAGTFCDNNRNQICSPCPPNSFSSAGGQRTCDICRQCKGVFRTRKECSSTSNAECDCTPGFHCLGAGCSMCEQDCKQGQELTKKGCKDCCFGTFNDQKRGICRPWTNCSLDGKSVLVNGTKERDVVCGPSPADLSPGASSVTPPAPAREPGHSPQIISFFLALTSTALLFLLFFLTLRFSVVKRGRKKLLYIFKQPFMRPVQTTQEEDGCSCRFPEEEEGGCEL

[2] = target: T2, 人CD137全长 (SEQ ID No.19)，表达于细胞; experiment: flow cytometry (FACS) on CHO-K1/hCD137 cells, goat anti-human FITC; antibody at 83.33333333 nM
[3] = target: T2, 人CD137全长 (SEQ ID No.19)，表达于细胞; experiment: flow cytometry (FACS) on CHO-K1/hCD137 cells, goat anti-human FITC; antibody at 27.77777778 nM
[4] = target: T3, 人PD-L1胞外段 (SEQ ID No.22 第19-238位) (human, UniProt Q9NZQ7 19-238); experiment: ELISA, human PD-L1 extracellular domain coated, goat anti-human HRP
T3 construct: also called 人PD-L1抗原
T3 sequence (Q9NZQ7 19-238): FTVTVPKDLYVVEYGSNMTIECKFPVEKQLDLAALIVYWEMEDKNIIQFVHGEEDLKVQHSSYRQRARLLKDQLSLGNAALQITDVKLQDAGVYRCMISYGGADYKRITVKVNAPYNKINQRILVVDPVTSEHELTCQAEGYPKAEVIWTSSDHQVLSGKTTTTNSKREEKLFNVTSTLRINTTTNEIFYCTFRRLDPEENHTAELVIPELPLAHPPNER

[5] = target: T2, 人CD137全长 (SEQ ID No.19)，表达于细胞; experiment: flow cytometry (FACS) on CHO-K1/hCD137 cells, goat anti-human FITC; antibody at 0.342935528 nM
[6] = target: T2, 人CD137全长 (SEQ ID No.19)，表达于细胞; experiment: flow cytometry (FACS) on CHO-K1/hCD137 cells, goat anti-human FITC; antibody at 250 nM
[7] = target: T2, 人CD137全长 (SEQ ID No.19)，表达于细胞; experiment: flow cytometry (FACS) on CHO-K1/hCD137 cells, goat anti-human FITC; antibody at 3.086419753 nM
[8] = target: T2, 人CD137全长 (SEQ ID No.19)，表达于细胞; experiment: flow cytometry (FACS) on CHO-K1/hCD137 cells, goat anti-human FITC; antibody at 1.028806584 nM
[9] = target: T4, 人PD-L1胞外段 (SEQ ID No.22 第19-238位)，带His标签 (human, UniProt Q9NZQ7 19-238); experiment: bridging ELISA: human PD-L1-His coated, bispecific antibody, then human CD137-mouse Fc, goat anti-mouse HRP
T4 construct: It may be the same preparation as m7; not shown: His tag
T4 sequence (Q9NZQ7 19-238): as above

[10] = target: T5, 人PD-L1全长 (SEQ ID No.22)，表达于CHO-K1细胞 (human, UniProt Q9NZQ7 19-290); experiment: flow cytometry (FACS) on CHO-K1/hPD-L1 cells, goat anti-human FITC
T5 construct: The full-length entry was transfected; also called CHO-K1/hPD-L1; 细胞表面人PD-L1
T5 sequence (Q9NZQ7 19-290 limits assumed): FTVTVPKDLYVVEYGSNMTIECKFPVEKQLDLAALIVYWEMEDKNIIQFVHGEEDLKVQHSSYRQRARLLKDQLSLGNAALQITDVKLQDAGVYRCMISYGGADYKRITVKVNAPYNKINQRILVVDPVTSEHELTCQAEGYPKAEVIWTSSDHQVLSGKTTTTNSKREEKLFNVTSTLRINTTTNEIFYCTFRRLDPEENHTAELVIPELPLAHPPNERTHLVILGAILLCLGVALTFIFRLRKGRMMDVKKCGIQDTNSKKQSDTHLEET

[11] = target: T2, 人CD137全长 (SEQ ID No.19)，表达于细胞; experiment: flow cytometry (FACS) on CHO-K1/hCD137 cells, goat anti-human FITC; 4-parameter logistic fit
猴CD137胞外段 (SEQ ID No.20) = target: T1, 猴CD137胞外段 (SEQ ID No.20); experiment: ELISA, monkey CD137 extracellular domain coated, goat anti-human HRP
猴PD-L1胞外段 (SEQ ID No.23) = target: T6, 猴PD-L1胞外段 (SEQ ID No.23) (monkey, UniProt Q9NZQ7 19-238 (human entry)); experiment: ELISA, monkey PD-L1 extracellular domain coated, goat anti-human HRP
T6 construct: Expressed in HEK293; no tag is stated; also called 猴PD-L1抗原
T6 sequence (Q9NZQ7 other isoform, or with tags, fused parts or gaps): as the sequence (Q9NZQ7 19-238) above, with A33T, A34S, S62N, R68Q, Q82R, F173L, T185A, T192I, H215L counted along it

Binder	FACS signal (read-out name not given) [1]	FACS signal (read-out name not given) [2]	FACS signal (read-out name not given) [3]	binding result [4]	FACS signal (read-out name not given) [5]	FACS signal (read-out name not given) [6]	FACS signal (read-out name not given) [7]	FACS signal (read-out name not given) [8]	binding result [9]	binding result [10]	EC50 [11]	binding result (猴CD137胞外段 (SEQ ID No.20))	binding result (猴PD-L1胞外段 (SEQ ID No.23))
B1	8000	16100	12100	binds	2680	16200	4096	3020	binds	binds	14.4 nM	–	–
B2	7390	16700	14600	–	2590	16600	2920	2620	–	–	12.4 nM	–	–
B3	7030	15400	11100	binds	2620	15300	3930	2770	binds	binds	16.4 nM	binds	binds
